In patent US20230002466A1 (ELPIS BIOPHARMACEUTICALS, published 2023):

T1: human IL2Rβ Fc fusion protein (human, UniProt P14784 27-239)
T1 construct: also called Recombinant Fc-tagged human IL2Rβ; not shown: Fc
T1 sequence (looked up): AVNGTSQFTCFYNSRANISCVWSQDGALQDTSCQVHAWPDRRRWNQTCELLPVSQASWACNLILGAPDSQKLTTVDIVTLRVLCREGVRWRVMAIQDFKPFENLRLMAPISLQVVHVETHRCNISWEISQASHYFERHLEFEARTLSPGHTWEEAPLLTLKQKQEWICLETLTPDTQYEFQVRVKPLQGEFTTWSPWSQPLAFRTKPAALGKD

T2: human IL2Rβ (human, UniProt P14784 27-239)
T2 construct: also called IL2β; CD122
T2 sequence (looked up): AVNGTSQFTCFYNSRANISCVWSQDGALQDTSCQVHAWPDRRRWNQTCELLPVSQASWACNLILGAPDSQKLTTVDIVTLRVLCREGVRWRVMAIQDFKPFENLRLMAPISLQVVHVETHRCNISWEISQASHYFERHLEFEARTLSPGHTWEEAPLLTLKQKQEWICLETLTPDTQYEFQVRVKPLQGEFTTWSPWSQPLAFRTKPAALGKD

T3: human IL2Rα (human, UniProt P01589 22-213, limits assumed)
T3 construct: also called IL2α; CD25
T3 sequence (looked up): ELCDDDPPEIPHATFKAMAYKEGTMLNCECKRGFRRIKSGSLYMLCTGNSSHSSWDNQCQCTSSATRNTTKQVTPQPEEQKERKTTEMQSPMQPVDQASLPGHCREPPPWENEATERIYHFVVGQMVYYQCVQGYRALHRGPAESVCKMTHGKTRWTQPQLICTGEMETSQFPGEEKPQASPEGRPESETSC

T4: human IL2Rα Fc fusion protein (human, UniProt P01589 22-213, limits assumed)
T4 construct: also called Recombinant Fc-tagged human IL2Rα; not shown: Fc
T4 sequence (looked up): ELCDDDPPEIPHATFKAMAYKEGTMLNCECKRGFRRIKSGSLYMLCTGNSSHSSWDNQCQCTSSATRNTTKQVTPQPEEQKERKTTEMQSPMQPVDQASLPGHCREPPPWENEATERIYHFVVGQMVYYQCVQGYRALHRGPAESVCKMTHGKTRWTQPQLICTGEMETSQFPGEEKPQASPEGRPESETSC


Experiments:
[1] = target: T1, human IL2Rβ Fc fusion protein; assay: ELISA, Fc-tagged receptor coated, anti-HisTag-HRP
Experimental: Recombinant Fc-tagged human IL2Rα and IL2Rβ were added in 25 uL of 1×PBS to wells of 384-well plate and incubated overnight at 4° C. to coat the plates. Plates were washed three times with 0.05% Tween20/1×PBS. Plates were blocked with 100 uL of SuperBlock for 1 hr at RT and then washed 3 times with 0.05% Tween20/1×PBS. IL2 mutants were diluted in 0.05% Tween 20/1×PBS from 1000 nM to 0 nM and added to plates for 2 hrs at room temperature. Plates were then washed 6 times with 0.05% Tween20/1×PBS. Anti-HisTag-HRP was diluted 1:5000 in 0.05% Tween20/1×PBS and added to plates for 1 hr at RT. Plates were then washed 6 times with 0.05% Tween 20/1×PBS, and TMB was added to develop blue color. Reactions were stopped with 2N […] and light absorbance at 450 nm was read on a BioTek plate reader.

human IL2Rβ [2] = target: T2, human IL2Rβ; assay: SPR, single concentration
human IL2Rα [3] = target: T3, human IL2Rα; assay: SPR, IL2Rα captured on Protein A chip, IL2 at 100 nM
Experimental: The binding kinetics of IL2Rα-reduced binding clones to IL2Rα was assessed utilizing SPR technology with a Biacore T200, software version 2.0. For each cycle, 1 ug/mL of human IL2Rα was captured for 60 seconds at a flow rate of 10 uL/min on flow cell 2 in 1×HBSP buffer on a Protein A sensor chip. 100 nM of each HIS and Flag tag purified IL2 mutant was injected onto both the reference flow cell 1 and IL2Rα captured flow cell 2 for 150 seconds at a flow rate of 30 uL/min followed by washing for 300 seconds. The flow cells were then regenerated with Glycine pH 2.0 for 60 seconds at a flow rate of 30 uL/min. A HBSP+ buffer was included with each sample as a baseline control. The assay was set up in a 96-well format. The kinetics data was analyzed with Biacore T200 evaluation software 3.0. The specific binding response unit was derived from subtraction of binding to reference flow cell 1 from IL2Rα flow cell 2 and subtraction of buffer control. […] Relative response (RU) was determined for each IL2Rα-reduced binding clone (FIG. 4, Table 3).

human IL2Rβ [4] = target: T2, human IL2Rβ; assay: SPR, receptor captured on Protein A chip, mammalian-produced IL2
Experimental: (§1) The assay was run with Biacore T200 control software version 2.0. For each cycle, 1 μg/mL of human IL2Rβ or IL2Rα was captured for 60 seconds at flow rate of 10 μL/min on flow cell 2 in 1×HBST buffer on Protein A sensor chip. Two-fold serial diluted HIS tag purified engineered IL2 mutant was injected onto both reference flow cell 1 and IL2Rβ or IL2Rα captured flow cell 2 for 150 seconds at flow rate of 30 μL/min followed by washing for 300 seconds. The flow cells were then regenerated with Glycine pH 2 for 40 seconds at a flow rate of 30 μL/mins. Eight concentration points from 0 to 100 nM were assayed for each IL2Rβ agonist clone 96-well plate format. The kinetics data was analyzed with Biacore T200 evaluation software 3000. The specific binding response unit was derived from subtraction of binding to reference flow cell 1 from target flow cell 2.

human IL2Rα [5] = target: T3, human IL2Rα; assay: as above
Experimental: as §1

[6] = target: T1, human IL2Rβ Fc fusion protein; assay: ELISA, receptor-Fc coated, anti-Flag HRP
Experimental: (§2) Briefly, 384 well plate was immobilized with human IL2Rα and IL2Rβ Fc fusion proteins at a final concentration of 2 ug/mL in 1×PBS in total volume of 25 uL per well. The plate was incubated overnight at 4 C and blocked with 80 uL of superblock per well for 1 hour. […] Each dilution was added to IL2Rα or IL2Rβ wells in parallel in duplicates. The IL2 mutant binding was detected by adding 25 uL of anti-Flag HRP diluted at 1:5000 in 1×PBST. In between each step, the plate was washed three times with 1×PBST using a plate washer. The plate was then developed with 25 uL of TMB substrate for five minutes and stopped by adding 25 ul of 2N sulfuric acid. The plate was read at OD450 nm Biotek plate reader and the EC50 was analyzed with Prism 8.1 software to generate EC50 values (FIG. 15A for IL2Rα, and FIG. 15B for IL2Rβ, summarized in Table 9).

[7] = target: T4, human IL2Rα Fc fusion protein; assay: ELISA, receptor-Fc coated, anti-Flag HRP
Experimental: as §2

human IL2Rβ [8] = target: T2, human IL2Rβ; assay: SPR, receptor captured on Protein A chip, E. coli-produced IL2
Experimental: as §1

human IL2Rα [9] = target: T3, human IL2Rα; assay: as above
Experimental: as §1

human IL2Rα [10] = target: T3, human IL2Rα; assay: IL2Rα binding ELISA with E. coli culture supernatant of the clone; hFc bar as control (Example 2)

Row | EC50 [1] [nM] | Kd (human IL2Rβ [2]) [nM] | RU (at 100 nM) (human IL2Rα [3]) [RU] | Relevant binding to WT IL2 (%) (human IL2Rα [3]) | Kd (human IL2Rβ [4]) [nM] | koff (human IL2Rβ [4]) [s⁻¹] | kon (human IL2Rβ [4]) [M⁻¹ s⁻¹] | relative activity IL2Rβ (KD: fold) against WT IL2 (human IL2Rβ [4]) [fold] | Kd (human IL2Rα [5]) [nM] | relative activity IL2Rα (KD: fold) against WT IL2 (human IL2Rα [5]) [fold] | EC50 [6] [nM] | EC50 [7] [nM] | Kd (human IL2Rβ [8]) [nM] | koff (human IL2Rβ [8]) [s⁻¹] | kon (human IL2Rβ [8]) [M⁻¹ s⁻¹] | relative activity IL2Rβ (KD: fold) against WT IL2 (human IL2Rβ [8]) [fold] | Kd (human IL2Rα [9]) [nM] | relative activity IL2Rα (KD: fold) against WT IL2 (human IL2Rα [9]) [fold] | Binder | binding result (human IL2Rα [10])
1 | 948 | 2.79 |  |  |  |  |  |  |  |  |  |  |  |  |  |  |  |  | EP349 (ligand) APTSSSTKKTQLQLEHLLLDLQMILNGINNYKNPKLTRMLTAKFYMPKKATELKHLQCLEEELKPLEEVLNLAQSKNFHLTARDAIDNINVIVQELKGSETTFMCEYADETATIVEFLNRWITFSQSIISTLTGSHHHHHH | 
2 |  |  | 40.8 | 28.7 | 0.145 | 0.000376 | 2.59e+06 | 6970 | 302 | -22.4 | 1.8 | 538 | 0.123 | 0.00027 | 2.18e+06 | 35200 | 21.4 | -2.3 | EP003 (ligand, Produced in E. coli or mammalian cells; also called EP03; EP0003; not shown: C-terminal Flag and 6xHis tags) APTSSSTKKTQLQLEHLLLDLQMILNGINNYKNPKLTRMLTFKFYMPKKATELKHLQCLEEELKPLEEVLNLAQSKNFHLGVTDSISNAIVLARELKGSETTFMCEYADETATIVEFLNRWITFCQSIISTLT | 
3 |  |  | 5.3 | 3.73 |  |  |  |  |  |  |  |  |  |  |  |  |  |  | EP123 (ligand) APTSSSTKKTQLQLEHLLLDLQMILNGINNYKNPKLTVMLTFKFFMPKKATELKHLQCLEEELKPLEEVLNLAQSKNFHLRPRDLISNINVIVLELKGSETTFMCEYADETATIVEFLNRWITFSQSIISTLT | no binding (tested: supernatant, concentration not given)
4 |  |  |  |  | 0.414 | 0.00215 | 5.18e+06 | 2420 | 28.8 | -2.1 |  |  | 0.62 | 0.00189 | 3.05e+06 | 7010 | 40.5 | -4.3 | EP004 (ligand, Produced in E. coli or mammalian cells; not shown: C-terminal Flag and 6xHis tags) APTSSSTKKTQLQLEHLLLDLQMILNGINNYKNPKLTRMLTFKFYMPKKATELKHLQCLEEELKPLEEVLNLAQSKNFHLCPTDTIENITVLIQELKGSETTFMCEYADETATIVEFLNRWITFCQSIISTLT | 
